Source: US20210388087A1 (Chugai, published 2021)
Substitutions are numbered along the chain they refer to. In names and notes the source's numbering stands. Values belong to the binder of their own block, whether it stands above or below them.

Biological target: T1, Human CD137 ECD (human)
T1 construct: also called 4-1BB
Test: single mutant vs template dBBDu183H

T1 sequence (chain, as listed by the source limits assumed): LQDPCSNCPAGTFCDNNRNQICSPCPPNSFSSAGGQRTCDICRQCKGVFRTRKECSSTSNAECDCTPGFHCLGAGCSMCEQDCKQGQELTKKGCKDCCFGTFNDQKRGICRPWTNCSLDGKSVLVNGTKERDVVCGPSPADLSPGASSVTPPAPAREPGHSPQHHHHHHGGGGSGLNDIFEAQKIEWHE

- fold change of affinity: 0.8 fold
B1: H183/L072 VH T28W (antibody, name in Kabat numbering, V domains shown)
VH: QVQLVESGGGLVQPGRSLRLSCAASGFWFSNAWMHWVRQAPGKGLEWVAQIKDKGNAYAAYYAPSVKGRFTISRDDSKNSIYLQMNSLKTEDTAVYYCHYVHYASASTVLPAFGVDAWGQGTTVTVSS
VL: DIVMTQSPLSLPVTPGEPASISCQASQELVHMNRNTYLHWYQQKPGQAPRLLIYKVSNRFPGVPDRFSGSGSGTDFTLKISRVEAEDVGVYYCAQGTSVPFTFGQGTKLEIK

- fold change of affinity: 0.1 fold
B2: H183/L072 VH T100bL (antibody, name in Kabat numbering, V domains shown)
VH: B1 VH with W28T, T108L
VL: B1 VL

- fold change of affinity: 0.3 fold
B3: H183/L072 VH Y55G (antibody, name in Kabat numbering, V domains shown)
VH: B1 VH with W28T, Y58G
VL: B1 VL

- fold change of affinity: 3.3 fold
B4: H183/L072 VH V100cL (antibody, name in Kabat numbering, V domains shown)
VH: B1 VH with W28T, V109L
VL: B1 VL

- fold change of affinity: 0.3 fold
B5: H183/L072 VH Y58K (antibody, name in Kabat numbering, V domains shown)
VH: B1 VH with W28T, Y61K
VL: B1 VL

- fold change of affinity: 0.2 fold
B6: H183/L072 VH Y55K (antibody, name in Kabat numbering, V domains shown)
VH: B1 VH with W28T, Y58K
VL: B1 VL

- fold change of affinity: 0.2 fold
B7: H183/L072 VH Y58I (antibody, name in Kabat numbering, V domains shown)
VH: B1 VH with W28T, Y61I
VL: B1 VL

- fold change of affinity: 0.2 fold
B8: H183/L072 VH Y58A (antibody, name in Kabat numbering, V domains shown)
VH: B1 VH with W28T, Y61A
VL: B1 VL

- fold change of affinity: 1.3 fold
B9: H183/L072 VH V100cM (antibody, name in Kabat numbering, V domains shown)
VH: B1 VH with W28T, V109M
VL: B1 VL

- fold change of affinity: 0.9 fold
B10: H183/L072 VH V63A (antibody, name in Kabat numbering, V domains shown)
VH: B1 VH with W28T, V66A
VL: B1 VL

- fold change of affinity: 0 fold
B11: H183/L072 VH V100iA (antibody, name in Kabat numbering, V domains shown)
VH: B1 VH with W28T, V115A
VL: B1 VL

- fold change of affinity: 0 fold
B12: H183/L072 VH V95A (antibody, name in Kabat numbering, V domains shown)
VH: B1 VH with W28T, V101A
VL: B1 VL

- fold change of affinity: 0.1 fold
B13: H183/L072 VH Y58D (antibody, name in Kabat numbering, V domains shown)
VH: B1 VH with W28T, Y61D
VL: B1 VL

- fold change of affinity: 0 fold
B14: H183/L072 VH W33L (antibody, name in Kabat numbering, V domains shown)
VH: B1 VH with W28T, W33L
VL: B1 VL

- fold change of affinity: 1.1 fold
B15: H183/L072 VH V63I (antibody, name in Kabat numbering, V domains shown)
VH: B1 VH with W28T, V66I
VL: B1 VL

- fold change of affinity: 2.5 fold
B16: H183/L072 VH V100cI (antibody, name in Kabat numbering, V domains shown)
VH: B1 VH with W28T, V109I
VL: B1 VL

- fold change of affinity: 0.6 fold
B17: H183/L072 VH Y58M (antibody, name in Kabat numbering, V domains shown)
VH: B1 VH with W28T, Y61M
VL: B1 VL

- fold change of affinity: 1.1 fold
B18: H183/L072 VH V100iI (antibody, name in Kabat numbering, V domains shown)
VH: B1 VH with W28T, V115I
VL: B1 VL

- fold change of affinity: 0.4 fold
B19: H183/L072 VH Y58L (antibody, name in Kabat numbering, V domains shown)
VH: B1 VH with W28T, Y61L
VL: B1 VL

- fold change of affinity: 0 fold
B20: H183/L072 VH V100iM (antibody, name in Kabat numbering, V domains shown)
VH: B1 VH with W28T, V115M
VL: B1 VL

- fold change of affinity: 0 fold
B21: H183/L072 VH V95M (antibody, name in Kabat numbering, V domains shown)
VH: B1 VH with W28T, V101M
VL: B1 VL

- fold change of affinity: 0.3 fold
B22: H183/L072 VH Y55L (antibody, name in Kabat numbering, V domains shown)
VH: B1 VH with W28T, Y58L
VL: B1 VL

- fold change of affinity: 0.4 fold
B23: H183/L072 VH V100cA (antibody, name in Kabat numbering, V domains shown)
VH: B1 VH with W28T, V109A
VL: B1 VL

- fold change of affinity: 0 fold
B24: H183/L072 VH T100bA (antibody, name in Kabat numbering, V domains shown)
VH: B1 VH with W28T, T108A
VL: B1 VL

- fold change of affinity: 0.3 fold
B25: H183/L072 VH Y58H (antibody, name in Kabat numbering, V domains shown)
VH: B1 VH with W28T, Y61H
VL: B1 VL

- fold change of affinity: 1.1 fold
B26: H183/L072 VH T28Y (antibody, name in Kabat numbering, V domains shown)
VH: B1 VH with W28Y
VL: B1 VL

- fold change of affinity: 0.2 fold
B27: H183/L072 VH V95L (antibody, name in Kabat numbering, V domains shown)
VH: B1 VH with W28T, V101L
VL: B1 VL

- fold change of affinity: 0.5 fold
B28: H183/L072 VH T100bM (antibody, name in Kabat numbering, V domains shown)
VH: B1 VH with W28T, T108M
VL: B1 VL

- fold change of affinity: 0.2 fold
B29: H183/L072 VH Y58G (antibody, name in Kabat numbering, V domains shown)
VH: B1 VH with W28T, Y61G
VL: B1 VL

- fold change of affinity: 0.2 fold
B30: H183/L072 VH Y55Q (antibody, name in Kabat numbering, V domains shown)
VH: B1 VH with W28T, Y58Q
VL: B1 VL

- fold change of affinity: 1 fold
B31: H183/L072 VH V63P (antibody, name in Kabat numbering, V domains shown)
VH: B1 VH with W28T, V66P
VL: B1 VL

- fold change of affinity: 0.7 fold
B32: H183/L072 VH Y55N (antibody, name in Kabat numbering, V domains shown)
VH: B1 VH with W28T, Y58N
VL: B1 VL

- fold change of affinity: 0.4 fold
B33: H183/L072 VH Y55E (antibody, name in Kabat numbering, V domains shown)
VH: B1 VH with W28T, Y58E
VL: B1 VL

- fold change of affinity: 0 fold
B34: H183/L072 VH V95P (antibody, name in Kabat numbering, V domains shown)
VH: B1 VH with W28T, V101P
VL: B1 VL

- fold change of affinity: 0.4 fold
B35: H183/L072 VH Y55D (antibody, name in Kabat numbering, V domains shown)
VH: B1 VH with W28T, Y58D
VL: B1 VL

- fold change of affinity: 0.3 fold
B36: H183/L072 VH V95I (antibody, name in Kabat numbering, V domains shown)
VH: B1 VH with W28T, V101I
VL: B1 VL

- fold change of affinity: 0.4 fold
B37: H183/L072 VH Y55H (antibody, name in Kabat numbering, V domains shown)
VH: B1 VH with W28T, Y58H
VL: B1 VL

- fold change of affinity: 0 fold
B38: H183/L072 VH W33Y (antibody, name in Kabat numbering, V domains shown)
VH: B1 VH with W28T, W33Y
VL: B1 VL

- fold change of affinity: 0.5 fold
B39: H183/L072 VH Y55F (antibody, name in Kabat numbering, V domains shown)
VH: B1 VH with W28T, Y58F
VL: B1 VL

- fold change of affinity: 0.9 fold
B40: H183/L072 VH V63L (antibody, name in Kabat numbering, V domains shown)
VH: B1 VH with W28T, V66L
VL: B1 VL

- fold change of affinity: 0.1 fold
B41: H183/L072 VH V100iL (antibody, name in Kabat numbering, V domains shown)
VH: B1 VH with W28T, V115L
VL: B1 VL

- fold change of affinity: 0.3 fold
B42: H183/L072 VH Y55A (antibody, name in Kabat numbering, V domains shown)
VH: B1 VH with W28T, Y58A
VL: B1 VL

- fold change of affinity: 0.4 fold
B43: H183/L072 VH Y55M (antibody, name in Kabat numbering, V domains shown)
VH: B1 VH with W28T, Y58M
VL: B1 VL

- fold change of affinity: 0 fold
B44: H183/L072 VH T100bI (antibody, name in Kabat numbering, V domains shown)
VH: B1 VH with W28T, T108I
VL: B1 VL

- fold change of affinity: 0.9 fold
B45: H183/L072 VH Y58F (antibody, name in Kabat numbering, V domains shown)
VH: B1 VH with W28T, Y61F
VL: B1 VL

- fold change of affinity: 0.8 fold
B46: H183/L072 VH V63M (antibody, name in Kabat numbering, V domains shown)
VH: B1 VH with W28T, V66M
VL: B1 VL

- fold change of affinity: 0.3 fold
B47: H183/L072 VH Y58E (antibody, name in Kabat numbering, V domains shown)
VH: B1 VH with W28T, Y61E
VL: B1 VL
